Our source for the protein stability index values is the supplement of paper PMC10567573.

First the molecules themselves.
B1: AUP1 (parent)
chain: EGLLRFSSWPFSIQDVVQPLTLQV
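Note: lentivirally expressed fusions sorted by FACS into six bins by GFP to DsRed ratio, PSI derived from sequencing read proportions per bin multiplied by bin number.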

The variants in the series derive from B1. Put plainly: protein stability index of a GFP-peptide fusion (GPS, HEK-293T) (PSI 1-6); higher = more stable. Particulars: c terminus: a fixed tail appended.
For the variant EGLLRFSSWPFSIQDVVQPDTLQV [L20D], the protein stability index was 1.98.

EGLLRFSSWPFSIQDVVQPQTLQV [L20Q]: the protein stability index was determined as 2.28.

On to EGLLRFSSWPFSIQDVVQPHTLQV [L20H], for which the protein stability index worked out at 1.22.

Take EGLLRFSSWPFSIQDVVQPATLQV [L20A]: the protein stability index is 1.65.

On to EGLLRFSSWPFSIQDVVQPSTLQV [L20S], for which the protein stability index is 2.4.

EGLLRFSSWPFSIQDVVQPITLQV [L20I]: the protein stability index is 5.25.

Turning to EGLLRFSSWPFSIQDVVQPPTLQV [L20P], the protein stability index amounted to 1.63.

On to EGLLRFSSWPFSIQDVVQPKTLQV [L20K], for which the protein stability index amounted to 1.19.

Consider EGLLRFSSWPFSIQDVVQPNTLQV [L20N], for which the protein stability index turned out to be 1.54.

With EGLLRFSSWPFSIQDVVQPETLQV [L20E], the protein stability index is 1.89.

As to EGLLRFSSWPFSIQDVVQPTTLQV [L20T], the protein stability index was 1.73.

On to EGLLRFSSWPFSIQDVVQPRTLQV [L20R], for which the protein stability index was found to be 1.24.

For EGLLRFSSWPFSCQDVVQPLTLQV [I13C], the protein stability index came out at 1.56.

EGLLRFSSWPFSEQDVVQPLTLQV [I13E]: the protein stability index is 1.22.

As to EGLLRFSSWPFSDQDVVQPLTLQV [I13D], the protein stability index came to 1.86.

Take EGLLRFSSWPFSHQDVVQPLTLQV [I13H]: the protein stability index amounted to 1.94.

Consider EGLLRFSSWPFSKQDVVQPLTLQV [I13K], for which the protein stability index turned out to be 2.53.

Regarding EGLLRFSSWPFSRQDVVQPLTLQV [I13R], the protein stability index amounted to 2.4.

Regarding EGLLRFSSWPFSWQDVVQPLTLQV [I13W], the protein stability index amounted to 1.29.

On to EGLLRFSSWPFSTQDVVQPLTLQV [I13T], for which the protein stability index was determined as 2.84.

Turning to EGLLRFSSWPFSFQDVVQPLTLQV [I13F], the protein stability index turned out to be 3.26.

For the variant EGLLRFSSWPFPIQDVVQPLTLQV [S12P], the protein stability index came out at 2.66.

Regarding EGLLRFSSWPFMIQDVVQPLTLQV [S12M], the protein stability index came to 3.22.

For the variant EGLLRFSSWPFDIQDVVQPLTLQV [S12D], the protein stability index was 1.95.

On to EGLLRFSSWPFGIQDVVQPLTLQV [S12G], for which the protein stability index stood at 2.04.

Consider EGLLRFSSWPFHIQDVVQPLTLQV [S12H], for which the protein stability index came out at 2.25.

As for EGLLRFSSWPFSIQDVVQPLELQV [T21E], the protein stability index amounted to 2.9.

On to EGLLRFSSWPFSIQDVVQPLQLQV [T21Q], for which the protein stability index was determined as 2.63.

As to EGLLRFSSWPFSIQDVVQPLNLQV [T21N], the protein stability index stood at 1.74.

Consider EGLLRFSSWPFSIQDVVQPLPLQV [T21P], for which the protein stability index amounted to 1.8.

For the variant EGLLRFSSWPFSIQDVVQPLVLQV [T21V], the protein stability index was 2.81.

Take EGLLRFSSWPFSIQDVVQPLSLQV [T21S]: the protein stability index stood at 3.58.

EGLLRFSSWPFSIQDVVQPLGLQV [T21G]: the protein stability index came out at 5.2.

For EGLLRFSSWPFSIQDVVQPLDLQV [T21D], the protein stability index was 1.58.

For EGLLRFSSWPFSIQDVVQPLCLQV [T21C], the protein stability index is 1.52.

As to EGLLRFSSWPFSIQDVVQPLLLQV [T21L], the protein stability index was found to be 4.97.

Take EGLLRFSSWPFSIQDVVQILTLQV [P19I]: the protein stability index amounted to 2.96.

Consider EGLLRFSSWPFSIQDVVQLLTLQV [P19L], for which the protein stability index amounted to 4.13.

As to EGLLRFSSWPFSIQDVVQSLTLQV [P19S], the protein stability index worked out at 4.01.

Turning to EGLLRFSSWPFSIQDVVQWLTLQV [P19W], the protein stability index turned out to be 1.56.

For EGLLRFSSWPKSIQDVVQPLTLQV [F11K], the protein stability index worked out at 1.78.

For the variant EGLLRFSSWPDSIQDVVQPLTLQV [F11D], the protein stability index came out at 1.04.

On to EGLLRFSSWPTSIQDVVQPLTLQV [F11T], for which the protein stability index came out at 2.46.

Turning to EGLLRFSSWPQSIQDVVQPLTLQV [F11Q], the protein stability index is 1.73.

With EGLLRFSSWPGSIQDVVQPLTLQV [F11G], the protein stability index came to 1.05.

Consider EGLLRFSSWPNSIQDVVQPLTLQV [F11N], for which the protein stability index was 1.85.

As for EGLLRFSSWPPSIQDVVQPLTLQV [F11P], the protein stability index was 2.46.

As for EGLLRFSSWPSSIQDVVQPLTLQV [F11S], the protein stability index came to 3.39.

For EGLLRFSSWPMSIQDVVQPLTLQV [F11M], the protein stability index stood at 2.22.

EGLLRFSSWPRSIQDVVQPLTLQV [F11R]: the protein stability index came out at 1.7.

Turning to EGLLRFSSWPFSIQDVVQPLTLKV [Q23K], the protein stability index amounted to 1.59.

In the case of EGLLRFSSWPFSIQDVVQPLTLAV [Q23A], the protein stability index worked out at 3.02.

Consider EGLLRFSSWPFSIQDVVQPLTLLV [Q23L], for which the protein stability index is 3.58.

Consider EGLLRFSSWPFSIQDVVQPLTLRV [Q23R], for which the protein stability index is 2.91.

In the case of EGLLRFSSWPFSIQDVVQPLTLHV [Q23H], the protein stability index was determined as 1.98.

In the case of EGLLRFSSWPFSIQDVVQPLTLSV [Q23S], the protein stability index amounted to 1.4.

As to EGLLRFSSWPFSIQDVVQPLTLGV [Q23G], the protein stability index came to 1.4.

For EGLLRFSSWPFSIQDVVQPLTLMV [Q23M], the protein stability index worked out at 3.98.

For EGLLRFSSWPFSIQDVVQPLTLCV [Q23C], the protein stability index amounted to 1.61.

Take EGLLRFSSWPFSIQDVVQPLTLYV [Q23Y]: the protein stability index was determined as 2.82.

As for EGLLRFSSWPFSIQDVVQPLTLEV [Q23E], the protein stability index was determined as 2.65.

As to EGLLRFSSWPFSIQDVVQPLTLDV [Q23D], the protein stability index was determined as 1.81.

For EGLLRFSSWPFSIQDVVQPLTLPV [Q23P], the protein stability index is 1.45.

Consider EGLLRFSSWPFSIQDVVAPLTLQV [Q18A], for which the protein stability index came out at 2.25.

Take EGLLRFSSWPFSIQDVVHPLTLQV [Q18H]: the protein stability index stood at 2.53.

For the variant EGLLRFSSWPFSIQDVVEPLTLQV [Q18E], the protein stability index was determined as 2.6.

EGLLRFSSWPFSIQDVVYPLTLQV [Q18Y]: the protein stability index amounted to 4.33.

For EGLLRFSSWPFSIQMVVQPLTLQV [D15M], the protein stability index came to 2.12.

For the variant EGLLRFSSWPFSIQYVVQPLTLQV [D15Y], the protein stability index worked out at 2.41.

Regarding EGLLRFSSWPFSIQNVVQPLTLQV [D15N], the protein stability index was found to be 2.13.

As for EGLLRFSSWPFSIQIVVQPLTLQV [D15I], the protein stability index came to 1.3.

Take EGLLRFSSWPFSIQKVVQPLTLQV [D15K]: the protein stability index is 1.48.

For EGLLRFSSWPFSIQQVVQPLTLQV [D15Q], the protein stability index turned out to be 3.59.

For EGLLRFSSWPFSIQLVVQPLTLQV [D15L], the protein stability index turned out to be 2.63.

As for EGLLRFSSWPFSIQEVVQPLTLQV [D15E], the protein stability index stood at 3.9.

For the variant EGLLRFSSWPFSIQDTVQPLTLQV [V16T], the protein stability index worked out at 3.01.

Turning to EGLLRFSSWPFSIQDDVQPLTLQV [V16D], the protein stability index turned out to be 1.08.

EGLLRFSSWPFSIQDCVQPLTLQV [V16C]: the protein stability index is 3.11.

Consider EGLLRFSSWPFSIQDPVQPLTLQV [V16P], for which the protein stability index came to 3.33.

EGLLRFSSWPFSIQDEVQPLTLQV [V16E]: the protein stability index came out at 1.09.

EGLLRFSSWPFSIQDSVQPLTLQV [V16S]: the protein stability index amounted to 4.02.

Take EGLLRFSSWPFSIQDLVQPLTLQV [V16L]: the protein stability index stood at 1.28.

Take EGLLRFSSWPFSIQDHVQPLTLQV [V16H]: the protein stability index is 3.18.

EGLLRFSSWPFSIQDKVQPLTLQV [V16K]: the protein stability index came to 2.57.

Regarding EGLLRFSSWPFSIQDIVQPLTLQV [V16I], the protein stability index is 2.78.

For EGLLRFSSTPFSIQDVVQPLTLQV [W9T], the protein stability index worked out at 1.86.

Turning to EGLLRFSSRPFSIQDVVQPLTLQV [W9R], the protein stability index is 1.48.

Regarding EGLLRFSSYPFSIQDVVQPLTLQV [W9Y], the protein stability index was 3.88.

With EGLLRFSSSPFSIQDVVQPLTLQV [W9S], the protein stability index is 1.73.

Turning to EGLLRFSSWPFSIQDVVQPLTFQV [L22F], the protein stability index is 3.96.

As for EGLLRFSSWPFSIQDVVQPLTAQV [L22A], the protein stability index is 1.68.

Regarding EGLLRFSSWPFSIQDVVQPLTKQV [L22K], the protein stability index was 1.76.

On to EGLLRFSSWPFSIQDVVQPLTVQV [L22V], for which the protein stability index turned out to be 2.62.

As for EGLLRFSSWPFSIQDVVQPLTEQV [L22E], the protein stability index is 2.15.
